According to paper PMC8284803:
Where two headings read alike, the source gives them in different places.

B1: HJ (Holliday junction) (structured_DNA)
DNA 1: CTAGTATAGAGCCGGCGCGCCATGTCTAGATAGCGTTAGGTCTGCCGAATAGTACTACTCGGATCCCGAGCGAACCACGC
DNA 2: GCGTGGTTCGCTCGGGATCCGAGTAGTACTATTCGGCAGAGGATTCGAATAGGCCTAATCGAATTCCGCCATCGATGCAC
DNA 3: GTGCATCGATGGCGGAATTCGATTAGGCCTATTCGAATCCAGACGCGAGTAGATCTTCACGGTACCCGCGGTTACCCGTG
DNA 4: CACGGGTAACCGCGGGTACCGTGAAGATCTACTCGCGTCTCCTAACGCTATCTAGACATGGCGCGCCGGCTCTATACTAG
B2: 80mer with 10 nt gap (mixed)
DNA 1: B1 DNA 1
DNA 2: GCGTGGTTCGCTCGGGATCCGAGTAGTACTATTCG
DNA 3: CGCTATCTAGACATGGCGCGCCGGCTCTATACTAG
B3: gHJ (gapped HJ) (structured_DNA)
DNA 1: B1 DNA 1
DNA 2: B1 DNA 2
DNA 3: B1 DNA 3
DNA 4: CACGGGTAACCGCGGGTACCGTGAAGATCTACTCGCGTCTCCTAA
DNA 5: CCGGCTCTATACTAG
B4: 80mer with 20 nt gap (mixed)
DNA 1: B1 DNA 1
DNA 2: GCGTGGTTCGCTCGGGATCCGAGTAGTACT
DNA 3: TCTAGACATGGCGCGCCGGCTCTATACTAG
B5: 80mer with 5 nt gap (mixed)
DNA 1: B1 DNA 1
DNA 2: GCGTGGTTCGCTCGGGATCCGAGTAGTACTATTCGG
DNA 3: CTAACGCTATCTAGACATGGCGCGCCGGCTCTATACTAG
B6: 80mer with 40 nt gap (mixed)
DNA 1: B1 DNA 1
DNA 2: GCGTGGTTCGCTCGGGATCC
DNA 3: GCGCGCCGGCTCTATACTAG

How the values were obtained:
Experiment in all cases: EMSA
[1] = target: hMSH4 (hMutSγ subunit);hMSH5 (hMutSγ subunit) (Homo sapiens;Homo sapiens, UniProt O15457;O43196 1-936;1-834, |)
[2] = target: T1, hMLH1 (hMutLγ subunit);hMLH3 (hMutLγ subunit) (Homo sapiens;Homo sapiens, UniProt P40692;Q9UHC1 1-756;1-1453, |)
[3] = target: T1, hMLH1 (hMutLγ subunit);hMLH3 (hMutLγ …); remark: listed apart in the source
[4] = target: T1, hMLH1 (hMutLγ subunit);hMLH3 (hMutLγ …); remark: listed apart in the source

Binder	Kd [2] [nM]	binding result [3]	further results
B1	~38	–	binding result [1]: binds
B2	–	no binding	–
B3	~16	–	–
B4	–	binds	–
B5	–	no binding	–
B6	–	–	binding result [4]: binds
